Reference: the DeepSol protein solubility set

assay: soluble on expression in E. coli; label from the status in PepcDB or PDB records

| Sequence | soluble on expression in E. coli |
| --- | --- |
| AEIKNVILMIGDGMGPQQVGLLETYANQAPNSIYKGNKTAIYQLAQEGVIGSSLTHPEDAIVVDSACSATMLATGIYSSSEVIGIDSQGNHVETVLEKAKKAGKATGLVSDTRLTHATPASFAAHQPHRSLENQIASDMLATGADVMLSGGLRHWIPKSTNDKGETYKQLEKLTQGDVYLKSKRKDDRNLLTEAEKDGYQLAFNRNMLDDAKGDKLLGLFAYSGMDDGIAYSNKKKSGERTQPSLKEMTQKALNILSKDEDGFFLMVEGGQIDWAGHSNDAGTMLHELLKFDEAIQTVYEWAKDREDTIVIVTADHETGSFGFSYSSNDLPKPQKRSGEAFADRDYAPNFNFGAFDILDGLYNQKQSYYGMISEFQKLDKSLQTPEKLAEIVNKNSEFPITAEQAKNVLASKPNPYRLAQHKYLSAEEVPAINDFDAFFPYNDRGNLLAREQATGQNIVWGTGTHTHTPVNVFAWGPAEKILPVSKIMHHSELGEYIKQQVN | soluble |
| MNISIRAETPGDIDAIAHLTEAAFRNETHSSHTEQYIVDALRRAGALTLSLVAEANGQVIGHIAASPVTIDGEAGDWYGLAPLSVAPGRQRQGLGSQLVRRLLTELRLLPAGGCVVLGEPTYYSRFGFRVESGLALPGVPAEYFQAQSFSGRMAQGIVAFHAAFDASG | not soluble |
| MGSDKIHHHHHHMNWMDQPDLYSRYKIFLEILQSKEHISLFDPRLKRYTDILIDLEKPFTTWSTPNHIILVHKTLCLRHFPNKYESSAKRPVLILPPQAGHHSNLADYSPAQSLVRVFHRYGYDVYVTQWLSATTEYKDLGIEDYIRLTDEAVEEVRKRTGVYKIHLVGQCQGGWQASIYTSLFPDKISTLVSAAAPIDVNAKPSPIVEYAQKLSIDVFRFMVNSGGGVMPGKFILQGFKSMQPEEHYVRKYFRLWQMIKEGDEDGVKRFIHFENWYQYTQNLPGRFYLEIVKNIFKENNLTKPGSFQLDGRPVDLRNISCPVIIMAGKKDHITPPEQAFALKNYISTPAADVIEILTEGGHIGTLMGTESLREDWTAVNEVLKLAI | not soluble |
| MSLSQQVIIFDTTLRDGEQALQASLSVKEKLQIALALERMGVDVMEVGFPVSSPGDFESVQTIARQVKNSRVCALARCVEKDIDVAAESLKVAEAFRIHTFIATSPMHIATKLRSTLDEVIERAIYMVKRARNYTDDVEFSCEDAGRTPIADLARVVEAAINAGATTINIPDTVGYTMPFEFAGIISGLYERVPNIDKAIISVHTHDDLGLAVGNSLAAVHAGARQVEGAMNGIGERAGNCSLEEVIMAIKVRKDILNVHTAINHQEIWRTSQLVSQICNMPIPANKAIVGSGAFAHSSGIHQDGVLKNRENYEIMTPESIGLNQIQLNLTSRSGRAAVKHRMDEMGYKESEYNLDNLYDAFLKLADKKGQVFDYDLEALAFIGKQQEEPEHFRLDYFSVQSGSNDIATAAVKLACGEEVKAEAANGNGPVDAVYQAINRITEYNVELVKYSLTAKGHGKDALGQVDIVANYNGRRFHGVGLATDIVESSAKAMVHVLNNIWRAAEVEKELQRKAQHNENNKETVEGGSHHHHHH | soluble |
| MMTQGPNLIGIHTNTKENEETQKFVNWFLNTSLTWDNNESKTPAQYFTESASYILPLKETFTGSNNKGQSGKNDGKNSNNTFKAKALELFKEQSENKIVGYSDPSDFRGGKFRESIGSAFNATVNSHVDFNTFVANFRANLGSGYDK | soluble |
| MGSSHHHHHHSSGLVPRGSHMAKAPEQTVTEPVGSYARAERPQDFEGFVWRLDNDGKEALPRNFRTSADALRAPEKKFHLDAAYVPSREGMDALHISGSSAFTPAQLKNVAAKLREKTAGPIYDVDLRQESHGYLDGIPVSWYGERDWANLGKSQHEALADERHRLHAALHKTVYIAPLGKHKLPEGGEVRRVQKVQTEQEVAEAAGMRYFRIAATDHVWPTPENIDRFLAFYRTLPQDAWLHFHCEAGVGRTTAFMVMTDMLKNPSVSLKDILYRQHEIGGFYYGEFPIKTKDKDSWKTKYYREKIVMIEQFYRYVQENRADGYQTPWSVWLKSHPAKA | soluble |
| MGSDKIHHHHHHLTLESKYHKKPEEIEEEQLWIEKAKQNPQHFAVLYEKYYKTIFLYLFRKVNDMDVAGDLCSDVFSKALSAIQSYEYKGVPYSAWLYRIAANEANMYFRKHNKREMICIDDTSIHLLNEDLQESNEENIYLTFLPLCLERLKPDEVILVQWRFFENKAFKEVGEIMNMTENNAKVKTYRILEKIRKWMLEMKGKSNE | not soluble |
| MIWIVGSGTCRGQTTERAKEIIERAEVIYGSRRALELAGVVDDSRARILRSFKGDEIRRIMEEGREREVAVISTGDPMVAGLGRVLREIAEDVEIKIEPAISSVQVALARLKVDLSEVAVVDCHAKDFDAELTELLKYRHLLILADSHFPLERLGKRRVVLLENLCMEGERIREGNADSIELESDYTIIFVEREVME | soluble |
| MDQNLKEQILELKRQKNAIILAHYYQRPEVQEIADFIGDSYNLSKIAKENDADTIVFCGVKFMAESAKVLSPQKKVLLPQPKAGCPMADMADAEGLAALKAKHPNAKVVSYINSSVEVKALCDTCCTSSNAAKIVKRIDSDEIIFLPDKNLGSYVQEMVPEKNIILWDGFCKVHNMIIPTDIEEMKNKYGDMKILAHPECWKPVRDMADFIGSTGAMIDYAEKDTTSDKYLVVTETGIMYKMQERVPNKTFYPLRSMVCVNMKATHLEDVYNSLVNSTFEINIEENLRQKALTSLENMLILGRLEHHHHHH | not soluble |
| GRMENEESDVKPPDWPNPMNATSQFPQPQHFDSFGLRLPRDITELPEWSEGYPFYMAMGFPGYDLSADDIAGKFQFSRGMRRSYDAGFKLMVVEYAESTNNCQAAKQFGVLEKNVRDWRKVKPQLQNAHAMRRAFRGPKNGRFALVDQRVAEYVRYMQAKGDPITREAMQLKALEIAQEMNIPEKGFKASLGWCRRMMRRYDLSLRHKVPVPQHLPEDLTEKLVTYQRSVLALRRAHDYEVAQMGNADETPICLEVPSRVTVDNQGEKPVLVKTPGREKLKITAMLGVLADGRKLPPYIILRGTYIPPGKFPSGMEIRCHRYGWMTEDLMQDWLEVVWRRRTGAVPKQRGMLILNGFRGHATDSVKNSMESMNTDMVIIPGGLTSQLQVLDVVVYKPLNDSVRAQYSNWLLAGNLALSPTGNAKKPPLGLFLEWVMVAWNSISSESIVQGFKKCHISSNLEEEDDVLWEIESELPGGGEPPKDCDTESMAESN | soluble |
| MPKGGASCLTPVYAGIRDDLNSFLRAYLQFESVRFFDYKVMFENRGMVGLFTGRHNSAEIIEFNECLLVHCLPYMEECVCPGTPRSLKERLFGLYSLYTFYYIQQEKHVVKVRMDPDSSRNFRRFAQFLLTEKIYDAYALCQKLLEDKAIKQVAFISIHDPSHFKRFYTDDKVSGVSIRTNLNDPLVNVKALVEQFDALGVIHKEYSRLKMKLGITSWMKLKDPIEELKKIIKTSLQAVESSSGVDEIVHTDHSAQQLASRGMQRSSIKDQAHSAALKFSRTRRHRSVKPVIVPAETFEYAPDPKKKKEAQETMPVSGRNGRKRGRPKSVPKSKVSNPARILYEKLAEDMISEHLSTDLTEQEAFTDRPQSSLEPQKNELFNWDAAPQDAQISNQTTEPSCGEDIFIEDFGEFKSQDDVMFTAEDFNDSLIPPLADSDSDLEIDA | not soluble |
| MKIVDANVLLYAVNTTSEHHKPSLRWLDGALSGADRVGFAWVPLLAFVRLATKVGLFPRPLPREAAITQVADWLAAPSAVLVNPTVRHADILARMLTYVGTGANLVNDAHLAALAVEHRASIVSYDSDFGRFEGVRWDQPPALL | soluble |
| MKITVPATSANIGPGFDSVGVAVSKYLTIEVLEPADVWFIEHDLGDIPSDENNLLISTALQVKSDLQPHKLVMASDIPLAR | not soluble |
| MSSTKKDIKVYVNYRDEYAEPKIISALKNSGKELTFTNSAKEANFQWAQYEDIDFDEVYKNPKTKLCCSYVIRKALIRKEYLWRTVITYLAKHPDSILSKSVPEAYSLELDYAEFLDDSLMEAYELRQELEENATKNISEKQWYILKPSMCDRAQGIRLFSTIEELQAIFDSFDDEESESEEAGLEEKGDITVAFNNKIVISQIRNFLVQKYISKPLLLDHRKFHIRAYVLATGALSVYLFNEMLCLLARDKYKKPTPDPDLLFSHLSNTCLQGDNVEQSSIRDFWNTSIENKDDIFKSILNIIGDVFEAAATTQGIHFQPLENCFEIFGVDFLVDCESQVYLLEVNSYPDFKQTGKNLSNIIENLFSAVVETAIIPFFESSTKRNVDSKLTLAKKLQLFGFR | soluble |
| MGSDKIHHHHHHMRNTDNGVIGSDQTAVMTRLALDELIDQLLHSNALSLKLTANPLVADRAWHLTENTCIRAFSADDPQAKKRAHHALFILYQSWLADPLSPAAANQFHPLLSGIRNYIESEWLRAESKRFHHQRPMLNAGNIVDELRALCQQHPASHHPLFDFLASEASAAQIDYFFKSDSALNLLFFDLVAMGLVGSLPETRAEIAQNLWDEIGQGSTEITHVNLYKDLLKRRNIALPDNHFAHLYEWQGLAGYNAFMLGGVNRQHYYKSLGVMAMTELLDPPQYEKLVAGCRRIGLSERDVHYYAEHITVDIGHADGWLNNVIVPIGKKHPAAMEEVFFGAALRLQTCNDYYDGLLAALQSLGGSLSSHSVPPSE | not soluble |
| MSLKLTIGVSYPTANSPFWNAYTRFIDEGSHQLGVYINAVSAEEDEQKQLSDVETLINQGIDGLIVTPQSTSIAPTLLRIATQANIPVVVVDRYPGYAPGQNKNADYVAFLGPNNEKAGSGIAEALMAGGGSKFLALGGMPGNSVAQGRKAGLESALTAVGHRLVQFQYAGDSEDKGLAAAENMLQAHPAGDANAIWCFNDKLCQGAIKAVYNANREKEFIFGGMDLTPQAIAAIENGLYTVSLGAHWLEGGFGLAILYRKIHGQDPAERMVKLDLLKVDKSNVAKFKARYEGHHHHHH | not soluble |
| MSLYGGIPTNLVSGMSSAGAICTTQIRDAREREKREIGLLNDRLADYIEKVRFLKAQNHVLSHDIEILRRGFSGGGHISSFFESEISNCTVISERILSSRTKFQADITGLEGEIEIYRKKWLEALKVVRSHREDHHVNLDKLAEVEAQIALFNRKIRIVEEDVLRIRRETGGIQNDIGRIHSQIHAEIALKNERHHSVQMLLQRVQVIQTENSSRIEQELIYIHRDTTLENRDYFRQELQAAMRDIRANYEAMSIRSREDIEIAYRKRIDEIRVIPAHVHIEDYREELLSIRTTLSTTHSRLAEIESRNAWLLTTITDLKHQQAEEARIFEATLDAKQATYEQFKERCTELSIQMEKLCDHETSLQAELERYRVLLNGANVTTYVSNSTGAAGYRSSTHVATTTTTTTNGYSSGYTAGGYTSGGYTTGGYTRGITAGGAVGGISTGGYIGRSSSSHGISVGGNIGGVSVGGHINGYHASGDISAAGRHHESSYSYSSSNN | not soluble |
